Source: paper PMC8857273

How the values were obtained:
[1] = test system: T1, His6-SUMO-MucR1 (Sinorhizobium fredii CCBAU45436 (SF45436)), ORF:2d010df8; assay: EMSA; conditions: EMSA: 25 mM Tris pH 7.5, 100 mM KCl, 5 mM MgCl2, 5% glycerol, 0.05% dodecyl maltoside, 0.5 mg/mL BSA, 0.1 mg/mL sonicated salmon sperm DNA; room temperature …
T1 sequence: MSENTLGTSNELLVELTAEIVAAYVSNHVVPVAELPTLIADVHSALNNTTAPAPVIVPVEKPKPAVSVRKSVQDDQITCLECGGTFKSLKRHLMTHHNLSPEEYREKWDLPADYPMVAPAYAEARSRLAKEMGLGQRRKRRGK

[2] = test system: T2, His6-SUMO-MucR2 (Sinorhizobium fredii CCBAU45436 (SF45436)), ORF:a672ea6f; assay: EMSA; conditions: EMSA: 25 mM Tris pH 7.5, 100 mM KCl, 5 mM MgCl2, 5% glycerol, 0.05% dodecyl maltoside, 0.5 mg/mL BSA, 0.1 mg/mL sonicated salmon sperm DNA; room temperature …
T2 sequence: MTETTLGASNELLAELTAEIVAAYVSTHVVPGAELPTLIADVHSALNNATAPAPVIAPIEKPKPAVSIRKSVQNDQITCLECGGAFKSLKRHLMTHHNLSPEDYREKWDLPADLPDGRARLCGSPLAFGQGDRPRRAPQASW

“CATATTAGATTCGGAAGGACCGACGACGCCCCTCGATCGCTGCCAGTCCACTGACGATTGTTTTGAAGTGTTCAGCTTCCTGGAGATATAACTTCCAAAAGCCGAAATAAAGTTTGGATCATCTTTGATTTTATACAGTTCTCTGCTACTGCCAGAGCGTCTCCGACTTGGTGCATTTTAGCAACAGGCGTCATTCGAAAGTAAAGCTCACTCATCTATATTCGAGCGATTGGCGGCATTGAAGGCACAG (double strand) [visN promoter probe (250 bp)]” was tested, and the binding [1] was “binds” and the binding [2] was “no binding”.
